Experimental data: US20080201790A1, “Method and product for regulating cell responsiveness to external signals” (priority 1993, published 2008)

T1: JNKK (Homo sapiens, UniProt P45985)
T1 sequence (P45985 1-399): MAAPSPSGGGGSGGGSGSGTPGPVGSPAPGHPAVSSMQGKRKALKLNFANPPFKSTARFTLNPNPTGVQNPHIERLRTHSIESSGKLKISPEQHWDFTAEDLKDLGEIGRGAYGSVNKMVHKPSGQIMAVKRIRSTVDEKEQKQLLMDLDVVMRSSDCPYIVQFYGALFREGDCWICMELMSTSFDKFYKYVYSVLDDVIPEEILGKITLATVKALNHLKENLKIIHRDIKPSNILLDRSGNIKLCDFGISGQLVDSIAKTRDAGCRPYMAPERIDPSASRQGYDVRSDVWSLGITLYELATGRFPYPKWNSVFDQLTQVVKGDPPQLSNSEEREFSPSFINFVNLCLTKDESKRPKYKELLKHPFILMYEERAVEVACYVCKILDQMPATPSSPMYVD

B1: MEKK 3: 626-amino acid MEK kinase protein, SEQ ID No. 10 (protein, listed as Mus musculus)
chain: MDEQEALDSIMKDLVALQMSRRTRLSGYETMKNKDTGHPNRQSDVRIKFEHNGERRIIAFSRPVRYEDVEHKVTTVFGQPLDLHYMNNELSILLKNQDDLDKAIDILDRSSSMKSLRILLLSQDRNHTSSSPHSGVSRQVRIKPSQSAGDINTIYQAPEPRSRHLSVSSQNPGRSSPPPGYVPERQQHIARQGSYTSINSEGEFIPETSEQCMLDPLSSAENSLSGSCQSLDRSADSPSFRKSQMSRARSFPDNRKECSDRETQLYDKGVKGGTYPRRYHVSVHHKDYNDGRRTFPRIRRHQGNLFTLVPSSRSLSTNGENMGVAVQYLDPRGRLRSADSENALTVQERNVPTKSPSAPINWRRGKLLGQGAFGRVYLCYDVDTGRELASKQVQFDPDSPETSKEVSALECEIQLLKNLQHERIVQYYGCLRDRAEKILTIFMEYMPGGSVKDQLKAYGALTESVTRKYTRQILEGMSYLHSNMIVHRDIKGANILRDSAGNVKLGDFGASKRLQTICMSGTGIRSVTGTPYWMSPEVISGEGYGRKADVWSLGCTVVEMLTEKPPWAEYEAMAAIFKIATQPTNPQLPSHISEHGRDFLRRIFVEARQRPSAEELLTHHFAQLVY
B2: MEKK 2: 619-amino acid MEK kinase protein, SEQ ID No. 6 / 8 (protein)
chain: MGYPYDVPDYASDDQQALNSIMQDLAVLHKPVGQHYLYKKPGKQNLHHQKNRMMFESNLNIEEEKRILQVTRPVKLEDLRSKSKIAFGQSMDLHYTNNELVIPLTTQDDLDKAVELLDRSIHMKSLKILLVVNGSTQATNLEPSPSPEDLNNTPLGAERKKRLSVVGPPNRDRSSPPPGYIPDILHQIARNGSFTSINSEGEFIPESMDQMLDPLSLSSPENSGSGSCPSLDSPLDGESYPKSRMPRAQSYPDNHQEFTDYDNPIFEKFGKGGTYPRRYHVSYHHQEYNDGRKTFPRARRTQGTSFRSPVSFSPTDHSLSTSSGSSVFTPEYDDSRIRRRGSDIDNPTLTVTDISPPSRSPRAPTNWRLGKLLGQGAFGRVYLCYDVDTGRELAVKQVQFNPESPETSKEVNALECEIQLLKNLLHERIVQYYGCLRDPQEKTLSIFMELSPGGSIKDQLKAYGALTENVTRKYTRQILEGVHYLHSNMIVHRDIKGANILRDSTGNIKLGDFGASKRLQTICLSGTGMKSVTGTPYWMSPEVISGEGYGRKADIWSVACTVVEMLTEKPPWAEFEAMAAIFKIATQPTNPKLPPHVSDYTRDFLKRIFVEAKLRPSAEELLRHMFVHYH

Columns and labels:
[1] = tested on: p38; assay: p38 kinase activity in HEK293 cells transfected with MEKK 2 or 3; assay type: cell-based; conditions: immunoprecipitation and in vitro kinase assay
Description: The p38 kinase is activated by hyperosmotic conditions and recognizes the transcription factor ATF 2 as an in vitro substrate. Sorbitol treated (0.4M, 20 min) or control HEK293 cells were lysed in the same buffer as that used for immunoprecipitation of p38 using rabbit antiserum raised against the COOH terminal peptide sequence of p38. Immunoprecipitates were washed once in lysis buffer, once in assay buffer (25 mM Hepes, pH 7.4, 25 mM β-glycerophosphate, 25 mM […], 2 mM dithiothreitol, 0.1 mM sodium vanadate) resuspended, and used in an in vitro kinase assay with a recombinant NH2-terminal fragment of ATF 2 (20-50 ng). For analysis of p38 kinase activity from Mono Q FPLC fractions, 20 ul aliquots were mixed with kinase buffer containing 20-50 ng of recombinant ATF 2 and 10 uCi of [γ32P]PATP. Reactions were quenched in Laemmli sample buffer, boiled, and proteins were resolved using SDS 10% PAGE. […] Mono Q FPLC fractionation of lysates from MEKK 2 or 3 transfected HEK293 cells confirmed that p38 kinase activity was similar to that from control transfected cells. ATF 2 is also a substrate for JNK. Fractions 2-8 from cells transfected with MEKK 2 or 3, that contain immunoreactive JNK, have increased kinase activity toward ATF 2. This is a predicted result based on the ability of both MEKK 2 and 3 to stimulate JNK activity in HEK293 cells. […]

[2] = tested on: p42/44 MAPK; assay: p42/44 MAPK activity in HEK293 cells transfected with MEKK 2 or 3; assay type: cell-based; conditions: transient expression in HEK293 cells
Description: MAPK activity following Mono Q FPLC fractionation was measured using the epidermal growth factor receptor […] peptide as a selective p42/44 MAPK substrate. Alternatively, for cells transfected with varying amounts of MEKK plasmids, MAPK activity was assayed after elution from DEAE Sephacel columns. […] Thus, even though the kinase domains are approximately 94% conserved, MEKK 2 and 3 differ in their selectivity for regulation of the JNK and p42/44^MAPK pathways. This was particularly evident for MEKK 3 at low plasmid concentrations where the p42/44^MAPK pathway was preferentially activated.

[3] = biological target: T1, JNKK; assay: In vitro kinase assay of immunoprecipitated HA-tagged MEKK with recombinant JNKK; assay type: biochemical; conditions: 12CA5 immunoprecipitates
Description: (§1) MEKK 2 Phosphorylates Both MEK 1 and JNK Kinase in Vitro. HEK293 cells expressing MEKK 2 and 3 were lysed in !% Triton x-100, 0.5% Nonidet P-40, 20 mM Tris HCL, pH 7.5, 150 mM NaCl, 20 mM NaF, 0.2 mM sodium vanadate, 1 mM EDTA, […], 1 mM EGTA, 5 mM PMSF. Nuclei were removed by centrifugation at 15,000×g for 5 min. HA epitope-tagged MEKK2 and 3 were immunoprecipitated with the 12CA5 antibody recognizing the HA epitope-tag. The immunoprecipitates were washed twice in lysis buffer, twice in PAN (10 mM Pipes, pH 7.0, 100 mM NaCl, 20 ug/ml aprotinin), suspended in 20 mM Pipes, 10 mM MnCl2, 20 ug/ml aprotinin, and used in an in vitro kinase assay with 20-50 ng of recombinant MEK1 or JNKK as substrates and 20 uCi of [γ^32P]ATP. Reactions were terminated by the addition of Laemmli sample buffer, boiled, and proteins were resolved by SDS-10% PAGE.
Incubations were for 30 min at 30° C. in the presence of 50 uM ATP. GST-cJun (1-79) Sepharose beads were then added, and the mixture was rotated at 4° C. for 30 min. The beads were washed, suspended in 40 ul of c-Jun kinase assay buffer containing 20 uCi of [γ32P]ATP, and incubated for 15 min at 30° C. Reaction mixtures were added to Laemmli sample buffer, boiled, and phosphorylated proteins were resolved on SDS 10% PAGE.

[4] = tested on: p38 MAPK; assay: Tyrosine phosphorylation of p38 MAPK in COS cells transfected with MEKK 1 or MEKK 3; assay type: cell-based; conditions: forty-eight hours after transfection
Description: (§2) COS cells were transfected with the expression plasmid pCVM5 ligated to cDNA clones encoding either MEKK 1 or MEKK 3 protein, or a control pCVM5 plasmid lacking MEKK cDNA inserts. Forty-eight hours after transfection, the COS cells were lysed and the lysate fractionated on a Mono Q FPLC column using conditions described in Example 4. The fractions were analyzed for tyrosine phosphorylation of MAP kinase-like enzymes using the kinase assay described in Example 4.

[5] = tested on: p42 and p44 forms of MAPK; assay: Phosphorylation of p42 and p44 MAPK in COS cells transfected with MEKK 1 or MEKK 3; assay type: cell-based; conditions: forty-eight hours after transfection
Description: as §2

[6] = tested on: c-Jun kinase; assay: c-Jun kinase activation in transfected COS cells; assay type: cell-based; conditions: expression in COS cells, FIG. 22
From the text: COS cells were transfected with pCMV5 expression plasmid encoding no cDNA insert (control), full length MEKK4 or the truncated MEKK4 encoding only the catalytic kinase domain.

[7] = biological target: T2, MEK 1 (Mus musculus, UniProt P31938); assay: In vitro kinase assay of immunoprecipitated HA-tagged MEKK with recombinant MEK1; assay type: biochemical; conditions: 12CA5 immunoprecipitates
T2 construct: polyhistidine (N); made in house; host or cells: pRSETA vector
Description: as §1

[8] = tested on: c-Jun kinase (JNK); assay: JNK activity in HEK293 cells transfected with MEKK 2 or 3; assay type: cell-based; conditions: for selectivity in activating JNK versus p42/44 MAPK: plasmid DNAs titrated over a range of concentrations; for c-Jun kinase (JNK) activity: transient expression in HEK293 cells
Description: JNK activity was measured using GSTc-Jun1-79) coupled to glutathione Sepharose 4B. Cells transfected with MEKK2 or 3 and control transfected cells were lysed in 0.5% Nonidet P-40, 20 mM Tris HCl, pH 7.6, 0.25 M NaCl, 3 mM EDTA, 3 mM EGTA, 1 mM dithiothreitol, 1 mM PMSFm 2 mM sodium vanadate, 20 ug/ml aprotinin, and 5 ug/ml leupeptin. Nuclei were removed by centrifugation at 15,000×g for 10 min and the supernatants (25 ug of protein) were mixed with 10 ul of a slurry of GST c-Jun(1-79) Sepharos (3-5 ug of GST cJun(1-79). The mixture was rotated at 4° C. for 1 h, washed twice in lysis buffer and once in kinase buffer (20 mM Hepes, pH 7.5, 10 mM MgCl2, 20 mM β-glycerophosphate, 10 mM p-nitrophenyl phosphate, 1 mM dithiothreitol, 50 uM sodium vanadate). Beads were suspended in 40 ul of kinase assay buffer containing 10 uCi of [γ32P]ATP and incubated at 30° C. for 20 min. Reaction mixtures were added to Laemmli sample buffer, boiled, and phosphorylated proteins were resolved on SDS-10% polyacrylamide gels. The JNK activity also eluted early from a Mono Q column using a linear sodium chloride elution gradient. […] When JNK activity was assayed following fractionation by Mono Q ion exchange chromatography, 50 ul of each fraction was incubated with the GST cJun(1-79) beads.

Molecule | p38 kinase activity [1] | p42/44 MAPK activity [2] | phosphorylation of JNKK in vitro [3] | phosphorylation of p38 MAPK [4] | phosphorylation of p42 and p44 MAPK [5] | activation of the c-Jun kinase pathway [6] | phosphorylation of MEK 1 in vitro [7] | selectivity in activating JNK versus p42/44 MAPK [8] | c-Jun kinase (JNK) activity [8]
B1 | neither MEKK 2 nor MEKK 3 stimulated p38 kinase activity | stimulated p42/44^MAPK activity | did not show measurable kinase activity toward MEK 1 or JNKK | induces tyrosine phosphorylation of p38 MAPK | induces tyrosine phosphorylation | also activate the c-Jun kinase pathway | did not show measurable kinase activity toward MEK 1 or JNKK | greater selectivity for activating p42/44 MAPK relative to JNK | stimulation of c-Jun kinase (JNK) activity
B2 | neither MEKK 2 nor MEKK 3 stimulated p38 kinase activity | stimulated p42/44^MAPK activity | clearly phosphorylates both MEK 1 and JNKK |  |  | also activate the c-Jun kinase pathway | clearly phosphorylates both MEK 1 and JNKK | greater selectivity for stimulation of the JNK pathway | stimulation of c-Jun kinase (JNK) activity
